From patent publication US20110044994A1

Tests used:
Experiment in all cases: cell-based or functional assay
[1] = target: 92RW020 pseudovirus Env (HIV-1)
[2] = target: ADA pseudovirus Env (HIV-1)
[3] = target: JR-CSF (I309A) pseudovirus Env (HIV-1) (UniProt P20871)
[4] = target: JR-CSF (Y318A) pseudovirus Env (HIV-1) (UniProt P20871)
[5] = target: JR-CSF pseudovirus (HIV-1 Env on the virions) (HIV-1) (UniProt P20871)
[6] = target: JR-FL (E168K) pseudovirus Env (HIV-1)

Binder	IC50 (ug/ml), pseudovirus neutralization, TZM-bl assay [1] [µg/mL]	IC50 (ug/ml), pseudovirus neutralization, TZM-bl assay [2] [µg/mL]	IC50 (ug/ml), pseudovirus neutralization, TZM-bl assay [3] [µg/mL]	IC50 (ug/ml), pseudovirus neutralization, TZM-bl assay [4] [µg/mL]	IC50 (ug/ml), pseudovirus neutralization, TZM-bl assay [5] [µg/mL]	IC50 (ug/ml), pseudovirus neutralization, TZM-bl assay [6] [µg/mL]
1503_H05 (PG16) (antibody, V domains shown) VH: QEKLVESGGGVVQPGGSLRLSCLASGFTFHKYGMHWVRQAPGKGLEWVALISDDGMRKYHSDSMWGRVTISRDNSKNTLYLQFSSLKVEDTAMFFCAREAGGPIWHDDVKYYDFNDGYYNYHYMDVWGKGTIVTVSS VL: QSALTQPASVSGSPGQTITISCNGTRSDVGGFDSVSWYQQSPGKAPKVMVFDVSHRPSGISNRFSGSKSGNTASLTISGLHIEDEGDYFCSSLTDRSHRIFGGGTKVTVLG	0.02	0.003	> 1	> 1	0.001	0.002
1469_M23 (PG16) (antibody, V domains shown) VH: QEKLVESGGGVVQPGGSLRLSCLASGFTFHKYGMHWVRQAPGKGLEWVALISDDGMRKYHSDSMWGRVTISRDNSKNTLYLQFSSLKVEDTAMFFCAREAGGPIWHDDVKYYDFNDGYYNYHYMDVWGKGTTVTVSS VL: QSALTQPASVSGSPGQTITISCNGTRSDVGGFDSVSWYQQSPGRAPKVMVFDVSHRPSGISNRFSGSKSGNTASLTISGLHIEDEGDYFCSSLTDRSHRIFGGGTKLTVLG	0.05	0.005	> 1	> 1	0.002	0.005
1456_A12 (PG16) (antibody, V domains shown) VH: HEQLVEAGGGVVQPGGSLRLSCLASGFTFHKYGMHWVRQAPGKGLEWVALISDDGMRKYHSDSMWGRVTISRDNSKNTLYLQFSSLRVEDTAMFFCAREAGGPIWHDDVKYYDFNDGYYNYHYMDVWGKGTKVTVSS VL: QSALTQPASVSGSPGQTITISCNGTSRDVGGFDSVSWYQQSPGKAPKVMVFDVSHRPSGMSNRFSGSKSGNTASLTISGLHIEDEGDYFCSSLTDRSHRIFGGGTKLTVLG	0.05	0.005	> 1	> 1	0.001	0.003
1489_I13 (PG16) (antibody, V domains shown) VH: QEQLLESGGGVVQPGGSLRLSCLASGFTFHKYGMHWVRQAPGKGLEWVALISDDGMRKYHSNSMWGRVTISRDNSKNTLYLQFSSLKVEDTAMFFCAREAGGPIWHDDVKYYDFNDGYYNYHYMDVWGKGTTVTVSS VL: QSALTQPASVSGSPGQTITISCNGTSSDVGGFDSVSWYQQSPGKAPKVMVFDVSHRPSGISNRFSGSKSGNTASLTISGLHIEDEGDYFCSSLTDRSHRIFGGGTKVTVLG	0.03	0.008	> 1	> 1	0.002	0.005
